For experiment [1], the target named is T1, RXFP4 (Homo sapiens, UniProt Q8TDU9). In words: Inhibition of forskolin-induced cAMP activity in CHO-K1-RXFP4 cells (pCRE β-galactosidase reporter). The class given is cell-based. The following applies: RXFP4; Table 5; read-out: cAMP pEC50 (converted). Further details: expressed in transfected cells. The method, then:
For agonist assays, cells were stimulated with forskolin (5 μM for RXFP3, 1 μM for RXFP4)±increasing concentrations of each peptide for 6 hours. Data were expressed as the % forskolin activity, whereby 100% was defined as forskolin alone and 0% as maximum agonist stimulation (1 μM Analogue 2 for RXFP3 and 1 μM Analogue 13 for RXFP4). Data were analysed and plotted using GraphPad Prism 9 and are expressed as the mean±SEM of the pooled data. Statistical analysis was conducted using one-way ANOVA with Uncorrected Fisher's LSD post-hoc analysis using GraphPad Prism 9.
(§1) An additional analogue of INSL5 was utilised as a control, INSL5-A13, having an A chain (SEQ ID NO: 9) and a B chain (SEQ ID NO: 10) with a first disulfide bond between Cys 1 of the A chain and Cys 7 of the B chain, and a second disulfide bond between Cys 14 of the A chain and Cys 19 of the B chain:
(§2) Competition binding and cAMP activity assay were conducted by a procedure analogous to that described above for Example 3. The results are shown in FIG. 24 (RXFP3) and FIG. 25 (RXFP4).

For experiment [2], the target named is T1, RXFP4. In words: SmBiT-R3/I5 NanoBiT competition binding assay, HEK-LgBiT-RXFP4 membrane fractions. More on the design: expressed in transfected cells. The conditions noted are these: RXFP4, 2 nM SmBiT-R3/I5; Table 5; read-out: SmBiT R3/I5 pKi (converted). The protocol:
Furthermore, a SmBiT-R3/15 competition binding assay was performed. All peptides were examined for their binding affinity to RXFP4 utilizing a competition NanoLuc® Binary Technology (NanoBiT™) binding assay. Briefly, HEK-LgBiT-RXFP4 crude membrane fractions (25 μg protein) were incubated with 2 nM SmBiT-R3/15 and increasing concentrations of competing peptides in binding buffer (0.5% BSA, 20 mM HEPES pH 7.5, 1.5 mM CaCl2), 50 mM NaCl) in a total of 100 μL in 96-well Optiplates (PerkinElmer, Waltham MA, USA). After 1 hour of shaking at room temperature, 1.25 μM final concentration of coelenterazine 400a was added, and luminescence measurements were recorded using a MicroBeta Microplate Counter (PerkinElmer, Waltham MA, USA). Each concentration-response curve was tested in triplicate, and each experiment was repeated at least three times with data being expressed as the mean±standard error of the mean (S.E.M) % specific.

The target in experiment [3] is T1, RXFP4. The experiment in a line: Eu-R3/I5 competition binding assay in CHO-K1-RXFP4 cells. Further details: expressed in transfected cells. The conditions noted are these: RXFP4; Table 5; read-out: Eu-R3/I5 pKi (converted). The protocol: An Eu-R3/15 competition binding assay in CHO-K1-RXFP4 cells was carried out.
Competition binding curves for each peptide were performed in triplicate and each experiment was performed independently at least three times. Fluorescent measurements were carried out at excitation of 340 nm and emission of 614 nm on a BMG POLARstar plate reader (BMG Labtech, Melbourne, Australia). Pooled data were presented as mean±S.E.M. of specific binding and are fitted using a one-site binding curve in GraphPad Prism version 8 (GraphPad Inc., San Diego, USA). Statistical analyses were conducted using one-way analysis of variance with uncorrected Fisher's least significant difference (LSD) post-hoc analysis in GraphPad Prism version 9.
as §1, §2

In experiment [4] the target is RXFP4 (relaxin family peptide receptor 4) on CHO-K1-RXFP4 cells (UniProt Q8TDU9). In words: competition with 5 nM Eu-DTPA-R3/I5 on CHO-K1-RXFP4 cells.
RXFP4 (relaxin family peptide receptor 4) on CHO-K1-RXFP4 cells (UniProt Q8TDU9), sequence (Q8TDU9 whole entry): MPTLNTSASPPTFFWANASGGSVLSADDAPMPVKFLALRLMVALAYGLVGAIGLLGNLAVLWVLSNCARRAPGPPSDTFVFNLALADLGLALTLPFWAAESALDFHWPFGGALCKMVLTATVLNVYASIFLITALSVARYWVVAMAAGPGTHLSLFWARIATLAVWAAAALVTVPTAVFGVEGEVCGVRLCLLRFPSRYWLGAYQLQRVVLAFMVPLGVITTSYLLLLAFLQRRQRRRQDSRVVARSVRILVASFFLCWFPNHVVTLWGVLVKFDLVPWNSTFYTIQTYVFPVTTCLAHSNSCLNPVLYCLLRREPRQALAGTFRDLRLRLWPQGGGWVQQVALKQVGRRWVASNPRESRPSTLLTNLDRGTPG
Experiment [5] addresses RXFP3 (relaxin family peptide receptor 3) on CHO-K1-RXFP3 cells (UniProt Q9NSD7). In words: cell-based or functional assay.
In experiment [6] the target is RXFP4-NLuc (nanoluciferase-tagged RXFP4) (UniProt Q8TDU9). The experiment in a line: cell-based or functional assay.
RXFP4-NLuc (nanoluciferase-tagged RXFP4) (UniProt Q8TDU9), sequence (Q8TDU9 whole entry): as above
Experiment [7] concerns the target RXFP3-NLuc (human RXFP3 with Nanoluciferase on the C-terminus) (human) (UniProt Q9NSD7). In words: cell-based or functional assay.
Experiment [8] concerns the target RXFP4 (relaxin family peptide receptor 4) on CHO-K1-RXFP4 cells (UniProt Q8TDU9). In words: cell-based or functional assay.
Experiment [9] addresses RXFP3 (relaxin family peptide receptor 3) on CHO-K1-RXFP3 cells (UniProt Q9NSD7). The experiment in a line: competition with 5 nM Eu-H3B1-22R on CHO-K1-RXFP3 cells.
Experiment [10] has as its target T2, RXFP4 (relaxin family peptide receptor 4) on CHO-K1-RXFP4 cells (UniProt Q8TDU9 1-374, limits assumed).
T2 construct: whole, on cells; also called INSL5 receptor
The experiment in a line: competition with Eu-R3/I5 on CHO-K1-RXFP4 cells.

The target in experiment [11] is T3, RXFP3 (relaxin family peptide receptor 3) on CHO-K1-RXFP3 cells (UniProt Q9NSD7 1-469, limits assumed).
T3 construct: whole, on cells; also called GPCR135
T3 sequence (looked up): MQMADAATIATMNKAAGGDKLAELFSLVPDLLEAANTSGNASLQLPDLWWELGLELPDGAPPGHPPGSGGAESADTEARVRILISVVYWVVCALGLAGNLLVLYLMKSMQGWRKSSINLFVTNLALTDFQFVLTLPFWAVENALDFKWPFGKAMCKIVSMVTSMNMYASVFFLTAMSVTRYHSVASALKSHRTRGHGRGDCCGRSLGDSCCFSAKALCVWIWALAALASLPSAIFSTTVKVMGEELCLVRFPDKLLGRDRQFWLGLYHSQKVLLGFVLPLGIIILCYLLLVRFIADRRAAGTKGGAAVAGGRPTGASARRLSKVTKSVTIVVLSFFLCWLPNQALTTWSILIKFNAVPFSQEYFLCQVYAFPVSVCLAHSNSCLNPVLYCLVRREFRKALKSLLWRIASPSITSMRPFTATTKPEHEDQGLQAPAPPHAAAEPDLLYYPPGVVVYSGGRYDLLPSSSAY
The experiment in a line: competition with Eu-H3B1-22R on CHO-K1-RXFP3 cells.

The target of experiment [12] is T3, RXFP3 (relaxin family peptide receptor …). The experiment in a line: cell-based or functional assay.
Experiment [13] has as its target T2, RXFP4 (relaxin family peptide receptor …). In words: cell-based or functional assay.
The target of experiment [14] is T4, RXFP3-NLuc (human RXFP3 with Nanoluciferase on the C-terminus) (human, UniProt Q9NSD7 1-469).
T4 sequence (looked up): T3 sequence (looked up)
The experiment in a line: cell-based or functional assay.

Experiment [15] has as its target RXFP4-NLuc (nanoluciferase-tagged RXFP4) (UniProt Q8TDU9 1-374). The experiment in a line: cell-based or functional assay.
Experiment [16] concerns the target T2, RXFP4 (relaxin family peptide receptor …). The experiment in a line: competition with 5 nM Eu-DTPA-R3/I5 on CHO-K1-RXFP4 cells.
The target in experiment [17] is T3, RXFP3 (relaxin family peptide receptor …). The experiment in a line: competition with 5 nM Eu-H3B1-22R on CHO-K1-RXFP3 cells.
For experiment [18] the target is unchanged. In words: cell-based or functional assay. The source holds these as a separate data set.
Experiment [19] addresses T2, RXFP4 (relaxin family peptide receptor …). In words: cell-based or functional assay. The source holds these as a separate data set.
For experiment [20], the target named is T5, RXFP3 (relaxin family peptide receptor 3) on CHO-K1-RXFP3 cells, Q9NSD7.
T5 chain: T3 sequence (looked up)
In words: cell-based or functional assay.

Square brackets hold non-standard residues; d marks the D form. Ends that are not written are not given here. Peptide text beside a SMILES is read from it. αMeF = C[C@](N)(Cc1ccccc1)C(=O)O Where only a bound is given, the exact number is not on record here.

T1 sequence (Q8TDU9 whole entry): as the sequence (Q8TDU9 whole entry) above
T2 sequence (Q8TDU9 whole entry): as the sequence (Q8TDU9 whole entry) above
RXFP4-NLuc (nanoluciferase-tagged RXFP4) (UniProt Q8TDU9 1-374), sequence (Q8TDU9 whole entry): as the sequence (Q8TDU9 whole entry) above

As for `CC[C@H](C)[C@H](NC(=O)[C@H](Cc1ccc(O)cc1)NC(=O)[C@@H](NC(=O)[C@@H](NC(=O)[C@](C)(Cc1ccccc1)NC(=O)[C@H](CCCNC(=N)N)NC(=O)[C@@H](NC(=O)[C@H](Cc1ccc(O)cc1)NC(=O)[C@](C)(Cc1ccccc1)NC(=O)[C@H](CC(C)C)NC(=O)CNC(=O)[C@@H](N)CO)[C@@H](C)CC)C(C)C)[C@@H](C)CC)C(=O)N[C@@H](CO)C(=O)NCC(=O)NCC(=O)N[C@@H](CO)C(=O)N[C@@H](CCCNC(=N)N)C(=O)N[C@@H](Cc1c[nH]c2ccccc12)C(=O)O` [aF stapled analogue] (H-SGL[αMeF]YIR[αMeF]VIYISGGSRW-OH), the EC50 on RXFP4 [1] is 87.1 nM. Further, the Ki at RXFP4 [2] was 30.9 nM; at RXFP4 [3] it was 158 nM.

As a reminder, the pKi is −log10 of the Ki, conventionally taken in molar units. The low end stands for a large Ki, the high end for a small Ki. Turning to “R3/I5 (R3/I5 chimeric relaxin peptide, RXFP3 agonist) (ligand)”, the negative logarithm of the Ki (pKi) was 8.28 in experiment [4] and 7.77 in experiment [9]. Besides, the cAMP pEC50 in experiment [5] was determined as 8.89; in [8], 8.98. In addition, in [6], the RXFP4 pEC50 (β-arrestin2 recruitment, NanoBRET AUC) came out at 7.56. Also, the RXFP3 pEC50 (β-arrestin2 recruitment, NanoBRET AUC) in experiment [7] amounted to 7.91.

On to SGR[αMeF]FIR[αMeF]VIFTSR (14 residues) [H3B10-22R13/17αF (Formula X, RXFP3 antagonist)], for which the binding result in [10] is listed as “no binding”. Besides, the pKi in experiment [11] turned out to be 7.6. In [12], the “RXFP3 Antagonist potency pIC50” value turned out to be 6.98. Moreover, the “RXFP4 cAMP pEC50” value in experiment [13] was less than 5.

B1: H3B10-27(13/17αF) (peptide)
peptide: SGR[αMeF]FIR[αMeF]VIFTSGGSRW
notes: 18-residue single-chain RXFP3 agonist, non-covalently stapled; also called πH3B; target peptide
In the case of B1, in experiment [14], the “RXFP3 pEC50 (β-arrestin2 recruitment, NanoBRET AUC)” value is 7.19. In addition, the “RXFP4 pEC50 (β-arrestin2 recruitment, NanoBRET AUC)” value in [15] worked out at 5.57. Also, the pKi in experiment [16] worked out at 6.81; in experiment [17], 6.83. Also, the “cAMP pEC50” value turned out to be 8.16 in [18] and 7.26 in [19].

Take SGRFFIRFVIFTSGGSRW (modifications not checked) [H3B10-27(13/17F)]: the cAMP pEC50 in [20] was less than 5.

These data come from patent publication US20260265334A1, “STAPLED PEPTIDES” (THE FLOREY INSTITUTE OF NEUROSCIENCE AND MENTAL HEALTH, priority 2023, published 2026).
